Results as given in the supplement of paper PMC10567573.

B1: TTC32 (parent)
chain: YSAYIRRCACAASSDESPGSKCSP

Variants of: B1
Experiment: protein stability index of a GFP-peptide fusion (GPS, HEK-293T) (PSI 1-6); higher = more stable
Details: c terminus: a fixed tail appended
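Note: lentivirally expressed fusions sorted by FACS into six bins by GFP to DsRed ratio, PSI derived from sequencing read proportions per bin multiplied by bin number.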

| Variant | protein stability index |
| --- | --- |
| YSAYIRRCACAASSDESPGSKCCP [S23C] | 2.26 |
| YSAYIRRCACAASSDESPGSKCTP [S23T] | 2.09 |
| YSAYIRRCACAASSDESPGSKCPP [S23P] | 2.02 |
| YSAYIRRCACAASSDESPGSKCAP [S23A] | 1.87 |
| YSAYIRRCACAASSDESPGSKCHP [S23H] | 1.6 |
| YSAYIRRCACAASSDESPGSKCFP [S23F] | 1.9 |
| YSAYIRRCACAASSDESPGSKCLP [S23L] | 2.08 |
| YSAYIRRCACAASSDESPGSKCNP [S23N] | 2.17 |
| YSAYIRRCACAASSDESPGSKCYP [S23Y] | 1.5 |
| YSAYIRRCACAASSDESPGSKCEP [S23E] | 2.14 |
| YSAYIRRCACAASSDESPGSKCIP [S23I] | 1.4 |
| YSAYIRRCACAASSDESPGSKCRP [S23R] | 2.44 |
| YSAYIRRCACAASSDESPGSKCGP [S23G] | 2.08 |
| YSAYIRRCACAASSDESPGSKCDP [S23D] | 2.46 |
| YSAYIRRCACAASSDESPGSKCKP [S23K] | 2.06 |
| YSAYIRRCACAASSDESPGSKCWP [S23W] | 2.53 |
| YSAYIRRCACAASSDESPGSKCVP [S23V] | 2.52 |
| YSAYIRRCACAASSDESPGSKCQP [S23Q] | 2.05 |
| YSAYIRRCACAASSDESPGSKCMP [S23M] | 1.61 |
| YSAYIRRCACAASSDESPGSKKSP [C22K] | 2.35 |
| YSAYIRRCACAASSDESPGSKYSP [C22Y] | 1.65 |
| YSAYIRRCACAASSDESPGSKHSP [C22H] | 2.14 |
| YSAYIRRCACAASSDESPGSKESP [C22E] | 2.96 |
| YSAYIRRCACAASSDESPGSKPSP [C22P] | 2.02 |

| Variant | protein stability index |
| --- | --- |
| YSAYIRRCACAASSDESPGSKQSP [C22Q] | 2.02 |
| YSAYIRRCACAASSDESPGSKLSP [C22L] | 1.78 |
| YSAYIRRCACAASSDESPGSKRSP [C22R] | 2.14 |
| YSAYIRRCACAASSDESPGSKTSP [C22T] | 2.57 |
| YSAYIRRCACAASSDESPGSKASP [C22A] | 2.72 |
| YSAYIRRCACAASSDESPGSKNSP [C22N] | 2.28 |
| YSAYIRRCACAASSDESPGSKGSP [C22G] | 2.35 |
| YSAYIRRCACAASSDESPGSKDSP [C22D] | 2.22 |
| YSAYIRRCACAASSDESPGSKWSP [C22W] | 2.41 |
| YSAYIRRCACAASSDESPGSKMSP [C22M] | 1.71 |
| YSAYIRRCACAASSDESPGSKSSP [C22S] | 2.28 |
| YSAYIRRCACAASSDESPGSKFSP [C22F] | 1.69 |
| YSAYIRRCACAASSDESPGSKVSP [C22V] | 2.1 |
| YSAYIRRCACAASSDESPGSKISP [C22I] | 1.85 |
| YSAYIRRCACAASSDESPVSKCSP [G19V] | 1.03 |
| YSAYIRRCACAASSDESPYSKCSP [G19Y] | 2.35 |
| YSAYIRRCACAASSDESPFSKCSP [G19F] | 2.32 |
| YSAYIRRCACAASSDESPQSKCSP [G19Q] | 2 |
| YSAYIRRCACAASSDESPHSKCSP [G19H] | 2.24 |
| YSAYIRRCACAASSDESPTSKCSP [G19T] | 1.91 |
| YSAYIRRCACAASSDESPMSKCSP [G19M] | 1.74 |
| YSAYIRRCACAASSDESPISKCSP [G19I] | 1.89 |
| YSAYIRRCACAASSDESPNSKCSP [G19N] | 2.24 |
| YSAYIRRCACAASSDESPPSKCSP [G19P] | 2.31 |

| Variant | protein stability index |
| --- | --- |
| YSAYIRRCACAASSDESPKSKCSP [G19K] | 2.29 |
| YSAYIRRCACAASSDESPSSKCSP [G19S] | 1.51 |
| YSAYIRRCACAASSDESPRSKCSP [G19R] | 2.04 |
| YSAYIRRCACAASSDESPESKCSP [G19E] | 2.31 |
| YSAYIRRCACAASSDESPLSKCSP [G19L] | 1.31 |
| YSAYIRRCACAASSDESPWSKCSP [G19W] | 4.05 |
| YSAYIRRCACAASSDESPGSECSP [K21E] | 2.3 |
| YSAYIRRCACAASSDESPGSQCSP [K21Q] | 1.98 |
| YSAYIRRCACAASSDESPGSYCSP [K21Y] | 2.8 |
| YSAYIRRCACAASSDESPGSACSP [K21A] | 2.23 |
| YSAYIRRCACAASSDESPGSRCSP [K21R] | 1.56 |
| YSAYIRRCACAASSDESPGSHCSP [K21H] | 1.97 |
| YSAYIRRCACAASSDESPGSSCSP [K21S] | 1.86 |
| YSAYIRRCACAASSDESPGSNCSP [K21N] | 2.11 |
| YSAYIRRCACAASSDESPGSDCSP [K21D] | 1.92 |
| YSAYIRRCACAASSDESPGSLCSP [K21L] | 1.95 |
| YSAYIRRCACAASSDESPGSMCSP [K21M] | 3.54 |
| YSAYIRRCACAASSDESPGSTCSP [K21T] | 1.69 |
| YSAYIRRCACAASSDESPGSWCSP [K21W] | 2.23 |
| YSAYIRRCACAASSDESPGSICSP [K21I] | 1.86 |
| YSAYIRRCACAASSDESPGSGCSP [K21G] | 2.02 |
| YSAYIRRCACAASSDESPGSPCSP [K21P] | 2.93 |
| YSAYIRRCACAASSDESPGSCCSP [K21C] | 2.37 |
| YSAYIRRCACAASSDESPGSFCSP [K21F] | 2.22 |

| Variant | protein stability index |
| --- | --- |
| YSAYIRRCACAASSDESPGSVCSP [K21V] | 1.62 |
| YSAYIRRCACAASSDESPGSKCSS [P24S] | 1.95 |
| YSAYIRRCACAASSDESPGSKCSL [P24L] | 2.1 |
| YSAYIRRCACAASSDESPGSKCSC [P24C] | 4.33 |
| YSAYIRRCACAASSDESPGSKCSR [P24R] | 2.2 |
| YSAYIRRCACAASSDESPGSKCSH [P24H] | 2.54 |
| YSAYIRRCACAASSDESPGSKCSD [P24D] | 2 |
| YSAYIRRCACAASSDESPGSKCST [P24T] | 2.03 |
| YSAYIRRCACAASSDESPGSKCSN [P24N] | 2.31 |
| YSAYIRRCACAASSDESPGSKCSE [P24E] | 2.34 |
| YSAYIRRCACAASSDESPGSKCSA [P24A] | 2.03 |
| YSAYIRRCACAASSDESPGSKCSG [P24G] | 2.23 |
| YSAYIRRCACAASSDESPGSKCSK [P24K] | 2.03 |
| YSAYIRRCACAASSDESPGSKCSV [P24V] | 2.93 |
| YSAYIRRCACAASSDESPGSKCSY [P24Y] | 1.54 |
| YSAYIRRCACAASSDESPGSKCSI [P24I] | 2.25 |
| YSAYIRRCACAASSDESPGSKCSW [P24W] | 1.91 |
| YSAYIRRCACAASSDESPGSKCSF [P24F] | 1.35 |
| YSAYIRRCACAASSDESPGSKCSQ [P24Q] | 2.04 |
| YSAYIRRCACAASSDESPGSKCSM [P24M] | 2.24 |
| YSAYIRRCACAASSDESPGVKCSP [S20V] | 1.79 |
| YSAYIRRCACAASSDESPGDKCSP [S20D] | 2.7 |
